Experimental data reported in paper PMC10557143, “Promoter R-Loops Recruit U2AF1 to Modulate Its Phase Separation and RNA Splicing”.
Substitutions are numbered along the chain they refer to.

Columns and labels:
U2AF1 [1] = target: T1, U2AF1 (human, UniProt Q01081 1-240); assay: fluorescence anisotropy; Anisotropy: 10 nM probe, 10 mM Tris-HCl pH 7.5, 1 mM EDTA, 100 mM KCl, 0.1 mM DTT, 10 ug/mL BSA, 30 min on ice; EMSA same but Tris pH 8.0, 6% native PAGE in 1x; details: protein: recombinant, tags: His6 (pET30a)
T1 sequence: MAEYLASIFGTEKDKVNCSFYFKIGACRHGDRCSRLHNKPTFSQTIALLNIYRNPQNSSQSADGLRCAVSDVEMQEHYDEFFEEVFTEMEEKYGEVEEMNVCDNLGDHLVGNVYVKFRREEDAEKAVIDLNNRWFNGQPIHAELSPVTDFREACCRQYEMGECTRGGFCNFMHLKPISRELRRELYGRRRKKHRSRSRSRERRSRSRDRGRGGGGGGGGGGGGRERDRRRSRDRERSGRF

U2AF1 [2] = target: T1, U2AF1; assay: fluorescence anisotropy; 100 mM K+; Anisotropy: 10 nM probe, 10 mM Tris-HCl pH 7.5, 1 mM EDTA, 100 mM KCl, 0.1 mM DTT, 10 ug/mL BSA, 30 min on ice; EMSA same but Tris pH 8.0, 6% native PAGE in 1x; details: protein: recombinant, tags: His6 (pET30a), label: 5' TAMRA
U2AF1-ZF2 = target: T2, U2AF1-ZF2 (human, UniProt Q01081 149-176); assay: fluorescence anisotropy; Anisotropy: 10 nM probe, 10 mM Tris-HCl pH 7.5, 1 mM EDTA, 100 mM KCl, 0.1 mM DTT, 10 ug/mL BSA, 30 min on ice; EMSA same but Tris pH 8.0, 6% native PAGE in 1x; details: protein: recombinant; tags: His6 (pET30a); label: 5' TAMRA; parallel intramolecular G4
T2 chain: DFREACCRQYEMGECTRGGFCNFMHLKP

B1: cMYC G4-R-loop (mixed)
?: GCGAGGGGCGGCCGGAGAGC
DNA 1: CCGCTCCGGCAGCTCAGGCCCTGGCGCTCTCCGGCCGCCCCTCGCCCGCCCGGGCTCCTCCTCCTGTGCC
DNA 2: GGCACAGGAGGAGGAGTTTTTTCTGAGGGTGGGGAGGGTGGGGAAGGCATTTTTTGAGCTGCCGGAGCGG
Kd (U2AF1 [1]; label: 5' Cy3 on RNA strand, R-loop bubble: strand 1 RNA, strand 2 template DNA, strand 3 displaced DNA, some slow-migrating putative intermolecular G4): 3.5 nM

B2: cMYC M4-R-loop (mixed)
?: GCGAGGGGCGGCCGGAGAGC
DNA 1: B1 DNA 1
DNA 2: B1 DNA 2 with G32A, G37T
Kd (U2AF1 [1]; label: 5' Cy3 on RNA strand, R-loop bubble: strand 1 RNA, strand 2 template DNA, strand 3 displaced DNA): 13 nM

B3: cMYC_M4 (ssDNA)
DNA: TGAGGGTGAGGAGTGTGGGGAAGG
Kd (U2AF1 [2]): 22 ± 1 nM

B4: hTel_G4 (structured_DNA)
DNA: AAAGGGTTAGGGTTAGGGTTAGGGAA
Kd (U2AF1 [2]; hybrid-type intramolecular G4): 50 ± 6 nM

B5: cKIT_G4 (structured_DNA)
DNA: AGGGAGGGCGCTGGGAGGAGGG
Kd (U2AF1 [2]; parallel intramolecular G4): 15 ± 2 nM

B6: 2KF8_M4 (ssDNA)
DNA: GGGTTAGTGTTAGTGTTAGGGT
Kd (U2AF1 [2]): 10 ± 2 nM

B7: U2AF1_RNA Motif (AG motif) (ssRNA)
RNA: UUUUAGGU
Kd (U2AF1 [1]; label: 5' Cy3): 350 nM

B8: RNA/DNA hybrid (DNA:RNA)
?: GCGAGGGGCGGCCGGAGAGC
DNA: GCTCTCCGGCCGCCCCTCGC
Kd (U2AF1 [1]; label: 5' Cy3 on RNA strand, blunt, strand 1 RNA, strand 2 DNA): 6.7 nM

B9: cKIT_M4 (ssDNA)
DNA: AGGGAGGGCTCTGTGAGGAGGG
Kd (U2AF1 [2]): 19 ± 4 nM

B10: 2KF8_G4 (structured_DNA)
DNA: GGGTTAGGGTTAGGGTTAGGGT
Kd (U2AF1 [2]; antiparallel intramolecular G4): 9 ± 1 nM

B11: hTel_M4 (ssDNA)
DNA: AAAGGGTTAGTGTTAGTGTTAGGGAA
Kd (U2AF1 [2]): 60 ± 6 nM

B12: cMYC_G4 (structured_DNA)
DNA: TGAGGGTGGGGAGGGTGGGGAAGG
Kd (U2AF1 [2]; parallel intramolecular G4): 10.8 ± 0.9 nM
binding signal (U2AF1-ZF2): > 10 fold lower affinity than full length
